Biological target: T1, human CD39 on the cell surface (human, UniProt P49961 1-510)
T1 construct: whole, on cells; This one entry covers every cell-surface human CD39 assay, on transfected and on endogenous cells; also called 239T-hCD39; Jurkat-hCD39
T1 sequence (looked up): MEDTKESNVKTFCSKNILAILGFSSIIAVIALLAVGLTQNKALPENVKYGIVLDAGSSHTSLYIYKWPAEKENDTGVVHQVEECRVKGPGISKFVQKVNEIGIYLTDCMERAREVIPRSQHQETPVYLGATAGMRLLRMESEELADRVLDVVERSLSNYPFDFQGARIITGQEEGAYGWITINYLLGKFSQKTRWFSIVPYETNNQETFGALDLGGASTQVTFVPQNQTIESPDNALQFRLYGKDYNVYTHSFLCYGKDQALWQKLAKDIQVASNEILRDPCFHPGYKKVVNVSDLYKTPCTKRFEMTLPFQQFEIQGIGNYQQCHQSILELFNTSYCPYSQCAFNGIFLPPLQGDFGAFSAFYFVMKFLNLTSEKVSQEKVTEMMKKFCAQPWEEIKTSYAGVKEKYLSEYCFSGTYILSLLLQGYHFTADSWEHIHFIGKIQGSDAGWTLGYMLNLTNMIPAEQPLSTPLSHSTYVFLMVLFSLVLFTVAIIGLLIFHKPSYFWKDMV
Experiment: flow cytometry on human CD39-overexpressing HEK293T or Jurkat cells

B1: P4_h1lala (antibody, V domains shown)
VH: QVQLKESGPSLVQPSQSLSITCTVSGFSLTNYGVHWVRQSPGKGLEWLGVILRRGSTDYNAAFMSRLSITKDNSKSQVFFKMNSLQADDTAIYYCAKTAVVAGDYFDYWGQGTTLTVSS
VL: DIVMTQSHKFMSTSVGDRVSVTCKASQNVGTNVAWYQQKPGQSPKALIYSASYRYSGVPDRFTGSGSGTDFTLTISNVQSEDLAEYFCQQYNSYPLTFGTGTKLEIKR
notes: Chimeric antibody
Question: Does B1 bind?
Answer: Result: binds

Source: US20250215105A1 (BRIGHTPATH BIOTHERAPEUTICS, published 2025)
